What was measured:
Assay in all cases: EMSA
Conditions in all cases: tags: MBP fusion
[1] = target: T1, ZFP SBS#252 (synthetic)
T1 chain: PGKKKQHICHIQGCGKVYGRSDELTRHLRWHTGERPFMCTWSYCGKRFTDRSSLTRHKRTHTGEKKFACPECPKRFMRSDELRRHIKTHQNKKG
Procedure, shortened: (§1)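 Purified ZFP was titrated against labeled double-stranded target (1 nM or lower, at least 10-fold below expected Kd) carrying the natural binding site with flanks. Binding buffer was 10 mM Tris pH 7.5, 100 mM KCl, 1 mM MgCl2, 0.1 mM ZnCl2, 5 mM DTT, 10% glycerol, 0.02% BSA, with equilibration for at least 45 min. Bound and free target were separated on a 10% polyacrylamide gel.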

[2] = target: T2, ZFP SBS#281 (synthetic)
T2 chain: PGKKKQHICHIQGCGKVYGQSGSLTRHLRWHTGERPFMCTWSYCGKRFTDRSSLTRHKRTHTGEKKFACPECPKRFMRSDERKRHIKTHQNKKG
Procedure, shortened: as §1

[3] = target: T3, ZFP SBS#279 (synthetic)
T3 chain: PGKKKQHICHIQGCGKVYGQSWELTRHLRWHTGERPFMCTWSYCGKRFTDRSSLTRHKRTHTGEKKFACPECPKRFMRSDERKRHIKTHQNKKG
Procedure, shortened: as §1

[4] = target: T4, ZFP SBS#278 (synthetic)
T4 chain: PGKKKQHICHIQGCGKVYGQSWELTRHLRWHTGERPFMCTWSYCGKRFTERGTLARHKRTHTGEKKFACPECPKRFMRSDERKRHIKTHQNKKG
Procedure, shortened: as §1

[5] = target: T5, ZFP SBS#277 (synthetic)
T5 chain: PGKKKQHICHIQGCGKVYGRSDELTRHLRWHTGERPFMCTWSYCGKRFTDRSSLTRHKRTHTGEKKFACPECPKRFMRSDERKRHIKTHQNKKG
Procedure, shortened: as §1

[6] = target: T6, ZFP SBS#276 (synthetic)
T6 chain: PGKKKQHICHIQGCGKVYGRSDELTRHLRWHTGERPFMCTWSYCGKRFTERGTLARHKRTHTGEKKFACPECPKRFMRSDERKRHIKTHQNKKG
Procedure, shortened: as §1

[7] = target: T7, ZFP SBS#280 (synthetic)
T7 chain: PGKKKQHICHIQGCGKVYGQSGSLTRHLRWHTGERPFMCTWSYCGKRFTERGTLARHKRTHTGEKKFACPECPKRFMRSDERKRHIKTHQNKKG
Procedure, shortened: as §1

[8] = target: ZFP SBS#522 (synthetic, UniProt P08047)
Procedure, shortened: as §1

[9] = target: ZFP SBS#515 (synthetic)
Procedure, shortened: as §1

[10] = target: T8, ZFP SBS#581 (synthetic)
T8 chain: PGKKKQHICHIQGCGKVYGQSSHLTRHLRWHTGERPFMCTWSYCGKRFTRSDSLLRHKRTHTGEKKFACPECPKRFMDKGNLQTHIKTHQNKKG
Procedure, shortened: as §1

[11] = target: ZFP SBS#517 (synthetic, UniProt P08047)
Sequence of ZFP SBS#517 (P08047 other isoform, or with tags, fused parts or gaps): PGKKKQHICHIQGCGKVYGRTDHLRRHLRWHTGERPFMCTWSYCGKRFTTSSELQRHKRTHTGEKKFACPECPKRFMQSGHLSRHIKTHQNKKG
Procedure, shortened: as §1

[12] = target: T9, ZFP SBS#540 (synthetic)
T9 chain: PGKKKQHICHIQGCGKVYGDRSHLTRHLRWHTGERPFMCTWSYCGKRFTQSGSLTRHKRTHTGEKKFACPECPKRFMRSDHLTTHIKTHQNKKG
Procedure, shortened: as §1

[13] = target: T10, ZFP SBS#575 (synthetic)
T10 chain: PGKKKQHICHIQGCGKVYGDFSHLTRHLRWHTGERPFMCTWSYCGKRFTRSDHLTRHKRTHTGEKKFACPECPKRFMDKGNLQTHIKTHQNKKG
Procedure, shortened: as §1

[14] = target: T11, ZFP SBS#570 (synthetic)
T11 chain: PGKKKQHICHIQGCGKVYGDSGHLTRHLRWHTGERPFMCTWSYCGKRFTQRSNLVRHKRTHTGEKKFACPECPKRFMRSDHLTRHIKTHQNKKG
Procedure, shortened: as §1

[15] = target: T12, ZFP SBS#595 (synthetic)
T12 chain: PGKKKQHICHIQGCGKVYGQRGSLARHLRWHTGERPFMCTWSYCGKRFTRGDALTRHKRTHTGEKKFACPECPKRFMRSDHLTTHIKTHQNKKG
Procedure, shortened: as §1

[16] = target: ZFP SBS#532 (synthetic, UniProt P08047)
Sequence of ZFP SBS#532 (P08047 other isoform, or with tags, fused parts or gaps): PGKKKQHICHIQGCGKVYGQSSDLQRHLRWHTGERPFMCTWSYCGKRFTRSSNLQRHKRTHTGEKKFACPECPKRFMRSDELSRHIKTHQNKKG
Procedure, shortened: as §1

[17] = target: ZFP SBS#534 (synthetic)
Procedure, shortened: as §1

[18] = target: ZFP SBS#533 (synthetic)
Sequence of ZFP SBS#533 (synthetic) (chain, as listed by the source): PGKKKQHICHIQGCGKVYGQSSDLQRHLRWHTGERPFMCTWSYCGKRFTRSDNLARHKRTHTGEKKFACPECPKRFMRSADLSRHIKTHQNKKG
Procedure, shortened: as §1

[19] = target: T13, ZFP SBS#531 (synthetic, UniProt P08047)
T13 chain: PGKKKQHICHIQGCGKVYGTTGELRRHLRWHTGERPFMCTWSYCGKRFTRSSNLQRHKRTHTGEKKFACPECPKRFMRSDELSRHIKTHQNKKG
Procedure, shortened: as §1

[20] = target: ZFP SBS#516 (synthetic, UniProt P08047)
Procedure, shortened: as §1

[21] = target: ZFP SBS#538 (synthetic)
Procedure, shortened: as §1

[22] = target: ZFP SBS#520 (synthetic)
Procedure, shortened: as §1

[23] = target: ZFP SBS#519 (synthetic, UniProt P08047)
Sequence of ZFP SBS#519 (P08047 other isoform, or with tags, fused parts or gaps): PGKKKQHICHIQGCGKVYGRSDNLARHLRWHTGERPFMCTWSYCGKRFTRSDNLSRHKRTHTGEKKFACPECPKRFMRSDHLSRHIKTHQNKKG
Procedure, shortened: as §1

[24] = target: ZFP SBS#576 (synthetic)
Sequence of ZFP SBS#576 (synthetic) (chain, as listed by the source): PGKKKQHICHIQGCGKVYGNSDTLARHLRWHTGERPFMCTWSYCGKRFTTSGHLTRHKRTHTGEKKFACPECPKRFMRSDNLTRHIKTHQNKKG
Procedure, shortened: as §1

[25] = target: ZFP SBS#588 (synthetic, UniProt P08047)
Procedure, shortened: as §1

[26] = target: T14, ZFP SBS#606 (synthetic, UniProt P08047)
T14 chain: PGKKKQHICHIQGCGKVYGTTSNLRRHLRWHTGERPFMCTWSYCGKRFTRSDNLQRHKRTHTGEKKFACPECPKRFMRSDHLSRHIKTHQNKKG
Procedure, shortened: as §1

[27] = target: T15, ZFP SBS#527 (synthetic, UniProt P08047)
T15 chain: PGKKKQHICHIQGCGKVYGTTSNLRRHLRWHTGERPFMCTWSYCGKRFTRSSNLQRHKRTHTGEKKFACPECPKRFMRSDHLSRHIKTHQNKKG
Procedure, shortened: as §1

[28] = target: T16, ZFP SBS#528 (synthetic, UniProt P08047)
T16 chain: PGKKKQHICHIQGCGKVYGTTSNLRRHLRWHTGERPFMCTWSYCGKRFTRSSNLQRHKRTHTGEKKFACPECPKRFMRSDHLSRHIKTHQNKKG
Procedure, shortened: as §1

[29] = target: ZFP SBS#583 (synthetic)
Sequence of ZFP SBS#583 (synthetic) (chain, as listed by the source): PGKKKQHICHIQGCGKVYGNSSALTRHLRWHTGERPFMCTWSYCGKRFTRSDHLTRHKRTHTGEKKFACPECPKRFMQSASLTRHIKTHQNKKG
Procedure, shortened: as §1

[30] = target: T17, ZFP SBS#579 (synthetic)
T17 chain: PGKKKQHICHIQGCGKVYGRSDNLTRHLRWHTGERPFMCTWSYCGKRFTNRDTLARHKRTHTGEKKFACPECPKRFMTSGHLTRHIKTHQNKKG
Procedure, shortened: as §1

[31] = target: ZFP SBS#577 (synthetic, UniProt P08047)
Procedure, shortened: as §1

[32] = target: T18, ZFP SBS#574 (synthetic)
T18 chain: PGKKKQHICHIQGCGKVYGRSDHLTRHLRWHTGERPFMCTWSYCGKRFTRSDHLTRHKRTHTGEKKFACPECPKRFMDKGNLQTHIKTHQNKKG
Procedure, shortened: as §1

[33] = target: ZFP SBS#518 (synthetic, UniProt P08047)
Sequence of ZFP SBS#518 (P08047 other isoform, or with tags, fused parts or gaps): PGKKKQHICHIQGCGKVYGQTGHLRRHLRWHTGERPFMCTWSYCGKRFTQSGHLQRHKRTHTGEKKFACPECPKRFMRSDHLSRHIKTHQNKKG
Procedure, shortened: as §1

[34] = target: ZFP SBS#587 (synthetic)
Sequence of ZFP SBS#587 (synthetic) (chain, as listed by the source): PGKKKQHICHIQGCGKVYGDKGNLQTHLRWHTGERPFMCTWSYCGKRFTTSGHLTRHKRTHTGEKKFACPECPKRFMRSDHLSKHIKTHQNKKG
Procedure, shortened: as §1

B1: GCGGCCGCG (dsDNA)
DNA 1: GCGGCCGCG
DNA 2: CGCGGCCGC
Which Kd [1] does the source give for B1 here?
The Kd was 100 nM.

What about the Kd [2] of the same binder?
Its Kd is 225 nM.

What about the Kd [3] of the same binder?
The Kd was 260 nM.

What about the Kd [4] of the same binder?
Its Kd is 190 nM.

And the Kd [5]?
The Kd was 107 nM.

And the Kd [6]?
Its Kd is 90 nM.

And the Kd [7]?
The Kd was 160 nM.

B2: GATGAGGCA (dsDNA)
DNA 1: GATGAGGCA
DNA 2: TGCCTCATC
B2 was tested. Which Kd [8] did it give?
Its Kd is 200 nM.

B3: TGGGAGGAGT (dsDNA)
DNA 1: TGGGAGGAGT
DNA 2: ACTCCTCCCA
How did the Kd [9] turn out when B3 was run?
The Kd was 0.5 nM.

B4: TACGTGGGTT (dsDNA)
DNA 1: TACGTGGGTT
DNA 2: AACCCACGTA
Which Kd [10] does the source give for B4 here?
The Kd was 382 nM.

B5: GGAGCTGGGG (dsDNA)
DNA 1: GGAGCTGGGG
DNA 2: CCCCAGCTCC
B5 was tested. Which Kd [11] did it give?
The Kd was 50 nM.

B6: TGGGCAGGCC (dsDNA)
DNA 1: TGGGCAGGCC
DNA 2: GGCCTGCCCA
With B6 as the binder, how does the Kd [12] read?
The Kd was 55 nM.

B7: TACGTGGGCT (dsDNA)
DNA 1: TACGTGGGCT
DNA 2: AGCCCACGTA
How did the Kd [13] turn out when B7 was run?
The Kd was 472 nM.

B8: GGGGAAGGCT (dsDNA)
DNA 1: GGGGAAGGCT
DNA 2: AGCCTTCCCC
B8 was tested. Which Kd [14] did it give?
The Kd was 20 nM.

B9: TGGTTGGTAT (dsDNA)
DNA 1: TGGTTGGTAT
DNA 2: ATACCAACCA
With B9 as the binder, how does the Kd [15] read?
The Kd was 73.3 nM.

B10: GCGGAGGCTT (dsDNA)
DNA 1: GCGGAGGCTT
DNA 2: AAGCCTCCGC
Which Kd [16] does the source give for B10 here?
The Kd was 100 nM.

And the Kd [17]?
The Kd was 10 nM.

And the Kd [18]?
The Kd was 7 nM.

And the Kd [19]?
Its Kd is 160 nM.

B11: GGAGGAGCT (dsDNA)
DNA 1: GGAGGAGCT
DNA 2: AGCTCCTCC
Which Kd [20] does the source give for B11 here?
Its Kd is 700 nM.

B12: GCAGAGGCTT (dsDNA)
DNA 1: GCAGAGGCTT
DNA 2: AAGCCTCTGC
Which Kd [21] does the source give for B12 here?
Its Kd is 70 nM.

B13: GGAGGAGAT (dsDNA)
DNA 1: GGAGGAGAT
DNA 2: ATCTCCTCC
How did the Kd [22] turn out when B13 was run?
Its Kd is 300 nM.

B14: GGGGAGGAGA (dsDNA)
DNA 1: GGGGAGGAGA
DNA 2: TCTCCTCCCC
B14 was tested. Which Kd [23] did it give?
The Kd was 0.3 nM.

B15: GAGGGTGTTG (dsDNA)
DNA 1: GAGGGTGTTG
DNA 2: CAACACCCTC
With B15 as the binder, how does the Kd [24] read?
The Kd was 200 nM.

B16: GGGGGGGGGG (dsDNA)
DNA 1: GGGGGGGGGG
DNA 2: CCCCCCCCCC
Which Kd [25] does the source give for B16 here?
The Kd was 30 nM.

B17: GGGGAGGATC (dsDNA)
DNA 1: GGGGAGGATC
DNA 2: GATCCTCCCC
B17 was tested. Which Kd [26] did it give?
Its Kd is 0.2 nM.

And the Kd [27]?
The Kd was 2 nM.

And the Kd [28]?
Its Kd is 10 nM.

B18: GTAGGGGTTG (dsDNA)
DNA 1: GTAGGGGTTG
DNA 2: CAACCCCTAC
How did the Kd [29] turn out when B18 was run?
The Kd was 46 nM.

B19: GGGGTTGAGG (dsDNA)
DNA 1: GGGGTTGAGG
DNA 2: CCTCAACCCC
B19 was tested. Which Kd [30] did it give?
The Kd was 200 nM.

B20: GGAGCGGGGA (dsDNA)
DNA 1: GGAGCGGGGA
DNA 2: TCCCCGCTCC
B20 was tested. Which Kd [31] did it give?
The Kd was 200 nM.

B21: TACGTGGGGT (dsDNA)
DNA 1: TACGTGGGGT
DNA 2: ACCCCACGTA
With B21 as the binder, how does the Kd [32] read?
The Kd was 25 nM.

B22: GGGGGAGGAG (dsDNA)
DNA 1: GGGGGAGGAG
DNA 2: CTCCTCCCCC
B22 was tested. Which Kd [33] did it give?
Its Kd is 30 nM.

B23: GGGGGTTACG (dsDNA)
DNA 1: GGGGGTTACG
DNA 2: CGTAACCCCC
For B23, which Kd [34] is on record?
The Kd was 500 nM.

— US20030068675, “Position dependent recognition of GNN nucleotide triplets by zinc fingers” (published 2003)
